Measured values reported in PMC9464236, “Biochemical characterization of a disease-causing human osteoprotegerin variant” (Scientific Reports, 2022).
Values joined by “and” are separate entries in the source; they are usually repeats but may differ in a detail not shown here. Identical values can stand only once.

T1: recombinant soluble RANKL (sRANKL) (UniProt O35235 139-316)
T1 chain: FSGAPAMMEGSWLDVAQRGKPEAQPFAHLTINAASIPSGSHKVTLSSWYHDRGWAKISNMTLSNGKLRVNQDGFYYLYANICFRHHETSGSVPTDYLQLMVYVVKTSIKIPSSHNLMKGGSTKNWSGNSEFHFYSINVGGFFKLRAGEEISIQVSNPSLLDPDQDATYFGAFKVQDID

B1: wildtype human osteoprotegerin (WT OPG) (receptor, UniProt O00300 22-401, looked up)
chain: ETFPPKYLHYDEETSHQLLCDKCPPGTYLKQHCTAKWKTVCAPCPDHYYTDSWHTSDECLYCSPVCKELQYVKQECNRTHNRVCECKEGRYLEIEFCLKHRSCPPGFGVVQAGTPERNTVCKRCPDGFFSNETSSKAPCRKHTNCSVFGLLLTQKGNATHDNICSGNSESTQKCGIDVTLCEEAFFRFAVPTKFTPNWLSVLVDNLPGTKVNAESVERIKRQHSSQEQTFQLLKLWKHQNKDQDIVKKIIQDIDLCENSVQRHIGHANLTFEQLRSLMESLPGKKVGAEDIEKTIKACKPSDQILKLLSLWRIKNGDQDTLKGLMHALKHSKTYHFPKTVTQSLKKTIRFLHSFTMYKLYQKLFLEMIGNQVQSVKISCL
notes: Osteoprotegerin (OPG, TNFRSF11B), human; complete open reading frame of full-length human OPG in pcDNA3.4-TOPO; stop codon at position 402; Disulfide-linked dimer; assays used the SEC-purified dimer; also called WT hOPG; hOPG; source: 293-freestyle cells, transiently transfected; purified from medium (heparin Sepharose, Superdex 200)
B2: human osteoprotegerin Stop402Leu mutant with a 19-residue C-terminal appendage (OPG^+19) (receptor)
chain: ETFPPKYLHYDEETSHQLLCDKCPPGTYLKQHCTAKWKTVCAPCPDHYYTDSWHTSDECLYCSPVCKELQYVKQECNRTHNRVCECKEGRYLEIEFCLKHRSCPPGFGVVQAGTPERNTVCKRCPDGFFSNETSSKAPCRKHTNCSVFGLLLTQKGNATHDNICSGNSESTQKCGIDVTLCEEAFFRFAVPTKFTPNWLSVLVDNLPGTKVNAESVERIKRQHSSQEQTFQLLKLWKHQNKDQDIVKKIIQDIDLCENSVQRHIGHANLTFEQLRSLMESLPGKKVGAEDIEKTIKACKPSDQILKLLSLWRIKNGDQDTLKGLMHALKHSKTYHFPKTVTQSLKKTIRFLHSFTMYKLYQKLFLEMIGNQVQSVKISCLLLEMAIELFPHNWRDPMDE
notes: Osteoprotegerin (OPG, TNFRSF11B), human; complete open reading frame, residues up to 401, followed by the read-through appendage; 19-residue appendage 402-420 made by read-through of the mutated stop codon (Stop402Leu); Secreted; Mixture of higher-order oligomers; also called mutant hOPG; mutant OPG; source: 293-freestyle cells, transiently transfected; purified from medium (heparin Sepharose, …)

Tests used:
[1] = target: T1, recombinant soluble RANKL (sRANKL); assay: ELISA
[2] = target: the molecule itself; assay: SEC; Superdex 200, 25 mM HEPES pH 7.1, 150 mM NaCl; peak fractions from the heparin Sepharose column; ferritin (440 kDa) and IgG (150 kDa) as markers

Binder | Kd [1] | stoichiometry N [2]
B1 | 4.8 nM | 2
B2 | 4.65 nM | 12 and 6 and 4
